This is an account of results in the domain aggregation screens of Martell et al. (2025).

The nature of this series: soluble fraction after stress (log2 fold change); higher = more stays soluble; pooled small domains, quantitative proteomics. The settings on record: stress: 50 degC. The method in brief: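 Custom libraries of small protein domains were pooled and measured in a high-throughput format, with quantitative proteomics as the read-out. Each library was stressed at 50°C. The value is the log2 fold change in the amount of each protein that stays soluble after stress, used as a measure of aggregation propensity; higher values mean more of the protein stays soluble.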
Take “HMNRNEFMERLEYLLSDIPQEEKADAIAYYRDYLEEAGDDAGKAIQDFGSPERIAAMIRSELAG”: the “soluble fraction (log2)” value is -0.0703. As to “HMNRQTGTVKWFNDAKGFGFITPESGPDLFVHFRSIQGAGFKSLQEGQRVTFVAVQGQKGMQADQVQA”, the “soluble fraction (log2)” value was -0.762. Take “HMNRTKQIYNELLFRLDQGVYPPESKFPSESQLADEFSVSKVTMNKIVSMLASSGRLSRGVRGAGTFVSSP”: the “soluble fraction (log2)” value is -0.775. With “HMNRYPIQTEVHAFNDDIIKEAINFEMSRGGQIFFVNNRIPQLYELENTIHRLVPDARVVIGHGQMP”, the “soluble fraction (log2)” value was -0.188. The result for “HMNSFKIYPNPSSREVVRFNQAQDVKVYDTLGKLILSAKNTSAIDTKSFNTGIYFIKTANGLTKKLIV” reads -0.695; that for “HMNSGFEVFREVVNQGSFIGAANALGISAPAVSKQIKLLENRLGLLLLYRTTRNVTLTDIGKQLFDTLDNS”, -1.97. In the case of “HMNSKKRQAILESLRSVTDHPTAEMIYNRLKPEYPDLSLGTVYRNLAMFLEEGQVISVGTVDGQERYDAR”, the “soluble fraction (log2)” value is -0.306. Regarding “HMNSKSFIFHIEDEEGIRLDVFLADNLPDVSRSYVQKLIDEEHVKVNGQSAKSRLKTVSGMEITVDVPAPK”, the “soluble fraction (log2)” value is -0.321. On to “HMNSLGYSDFVVDVQNERVASVVIEGLIINGERRDGTKFRTVLPTIGDQRLMDDLINHNVKVLARE”, for which the “soluble fraction (log2)” value is 0.236. On to “HMNSLTVPDITNRTLAEASQVLLDMGLTPIPDAVAKDGVGDDVVYAQSPPPNVGAREGDVVTITYNPA”, for which the “soluble fraction (log2)” value is 0.156. As to “HMNSNISYSEFLSQVEKGTINSVEITGNSIKGIYADGGEFITFSPGDPGLIDKLQRSDIEILATPPA”, the “soluble fraction (log2)” value is -0.104. Turning to “HMNSPSKVIDISQLRKGMFVQLDLGWMSHPFAVGSFKVSTDEQIQTLRGLGLSEVRYIPEKSDPA”, the “soluble fraction (log2)” value was -0.514. For the sequence “HMNSQSGKGGVGYILETKYGLNLPPKMREAMGYAAKGVSDHLHKELHPDEIFDLFKKTFENVGQPYS”, the “soluble fraction (log2)” value is -0.0272. “HMNSSLLGKRIKSLREDHDLTQKELSLMIGLTPKMISFYENNQRTPPLDILLKLAKIFEVSVDYLIGYA”: the “soluble fraction (log2)” value was -0.551. With “HMNSTRAPYLLDFEEDAAIREARRAGLVPRIARQPSGEPVGRVILQSHDYDYPMKRGDTILITISSG”, the “soluble fraction (log2)” value was -0.737. As to “HMNSTSGIAGVGYWINQYRKKKGMSPVDKKSPLVRRVYDWVQEQYDEGRITIISDAELTRQTELAMEA”, the “soluble fraction (log2)” value was -0.771. The result for “HMNSVAASLREISIKVSGTEDADKVSRLQELSQMPKLDASGIAEANTLLEQLRAKYGDLGLSVDTARGRIV” reads 0.284; that for “HMNSVSIAPEMLNWVIAHIQMNSLPKQIVEHLTAWISGQKEPTFNQIEKVSRATGIPLGYFFLEQPPKE”, -2.03. In the case of “HMNSYKGELLVDDKNIRLDLYLFNQFNFFSRTKIKNYILKGNVLVNNNKTSPSYILKGSEKIYYDFSVS”, the “soluble fraction (log2)” value was -1.2.

On to “HMNTEVDKVLLRSGEAYFGEVLLRNDELVMMKTQDGARFQFPVSEIKSIEKVSVADALRHINS”, for which the “soluble fraction (log2)” value amounted to 0.0758. The result for “HMNTGFPIILETSDAANLTVGAPIMYRGVEVGKIRNMELNSLGDRVLIHILIGHKYQHLVRQNSEFWFSS” reads -4.54; that for “HMNTKDRIKQLAAQRKITIAELERKLHIANGTIGKWDKQNPSIEPLKKLADYFGVTTDYLLGRT”, 0.162; that for “HMNTKLKPLYLLDIFREMTDERHRMTVPELLEELQRRGITAERKGIYRDIDALIQYGADIKHTGTGYYLAR”, -0.561. “HMNTKLSYSDLIEKIEAGQVEKVELDAGGSSAIVKLKNDNIEKRVNVPSIDNLMENLQDNMKTGNISVTE”: the “soluble fraction (log2)” value turned out to be 0.42. Regarding “HMNTLLGLSNSFQDNKDLENANSISRRFISYRPRSEAELRIRLLKVFSHEIVLESVAQMYREGLLNDQRF”, the “soluble fraction (log2)” value is -3.33. “HMNTLTKEDIQKAIDVIPIDFKSVVILNLVEGFSYKETAEILEIPIGTVMSRLHRGRKILQKLLWEYSSSK”: the “soluble fraction (log2)” value is -1.32. With “HMNTTTTKVVSVSSLNMRSGPSTSYNIIEVLTKDTQVEVISVEDGWAKIKYNSKTGYVSNQYLSDKK”, the “soluble fraction (log2)” value is 0.0146.

With “HMNTVAKELATQATQAKKRAFLDAYAETGIIKRAAEIAGIERKSHYLWLEKDPEYVEAFKSAGEQ”, the “soluble fraction (log2)” value worked out at 0.301. For the sequence “HMNTVSVGNLGLSVRAVNALKQAGIDTYDKLQELSWEELLLIPKLGQVTAAEIYRFITSYKKG”, the “soluble fraction (log2)” value is -0.552. Turning to “HMNVAETITLGKRLFNHALTILGKKQRNISRKQLKNFLNDLGLKDSKDLYESIGTGDKNPILMAQLLLG”, the “soluble fraction (log2)” value is -0.509. On to “HMNVAVGNSKLVGVAGERAYFVNGVGAAARTLSLQVGDALPTGEKVRRIERDGVTMTGASGDVRLSVLP”, for which the “soluble fraction (log2)” value came out at 0.0813. The result for “HMNVDALIGTKGIVVQPIRPFAVGQVKVNGQVWSAVGKTPETDIEQGREVKVHAIEGVKLVVTPT” reads 0.251; that for “HMNVDALVGMPARVTRAFVQGAGEVKLDNGETWTARLSAGVTDAEASVGQTVSVIAVRGAAVEVAPE”, 0.0386; that for “HMNVDSLIGKKARVLEDIDNLNAKGQVSIDGMEWTARSEDGSEIKKDALVEVVAIEGVKAIVKQ”, 0.0709. For the sequence “HMNVEQQNQARENIKRLMEEQGLSQPKLSEKAGIAFGTLSRILRGKQDLTIQTAEKIADALGLSVYDLAE”, the “soluble fraction (log2)” value was 0.281. With “HMNVKVSVDDIARPGLMASGRVTFADGNRGMWYVDEMGRLGIDPEVEGYQPSEADIQAFQRELQSVMES”, the “soluble fraction (log2)” value came out at 0.102. The value for “HMNVNSQQINDLEKSIQKFFDKDIKNYLNQNLSNDRMISKNEIDKIILLYYGSDKEPTLDEIKSIFN” was -0.0913; that for “HMNVNTHKTLILNSTFQPLSLATPQRALALLFSKKINVLKESDIKLRSVGQSVAIPKVAVLTYFVKA” was -0.291. As for “HMNVPFGYTIKDGLLVEQPDEKAILDNILTWKKGQMTVAEIAKKTGMETWKIYGILNYWRNK”, the “soluble fraction (log2)” value is -0.875. Consider “HMNVRAYKVSKESELTVEEKLEAVRGYGVADLLYVIREFEENPGKYEPEVIKLIVQQLTDKGIM”, for which the “soluble fraction (log2)” value was 0.199. For “HMNVRRSRTHEKVTTYQGYDIFINKEPNQRGMFTSAPMRGDNEYSNLRGEGKSKQDAVNMTKEKIDEIAA”, the “soluble fraction (log2)” value stood at 0.403. As to “HMNVSVSITKELQVYINDERISSSALESTLKSKLAGIENPTIILRAEEGVPIEKAVNVMDIANRNRYKIVL”, the “soluble fraction (log2)” value was -0.522.

Consider “HMNVYAGTMINVVGLQVEDAASRLRGLFYSVKIVEEESQEPDGKVLRQNIAEGTKDLEAWTLVELTVSKYV”, for which the “soluble fraction (log2)” value is -0.872. With “HMNVYEVKFGDTLDEIIKTYLFDIPVKKSILRQAVILANPHAFRRNNPHWMYSDRQLKLPELQDIRRAIF”, the “soluble fraction (log2)” value is -0.276. In the case of “HMNYGDVIEGQIMHVDRDELLVDIGSKSEGIIPAREFSTLTDEERAALSVGDHVLVFVVQAENQEGQAV”, the “soluble fraction (log2)” value worked out at 0.0712. The value for “HMNYIEWKNTFKKYLYLLPIKEEKETLAYFDEQYNKLNPKDLDNVENIFSDPIDKAAFVVAFYLEMEDEIK” was -0.612. With “HMNYIGADAAKNMAAADAQVDTANASFSGANLGEKNGLSYYQVDFTANGREYHYAIDAMTGTVIESSSAAS”, the “soluble fraction (log2)” value came to 0.124. With “HMNYNEKGEYTRTLTSGSETAVMTYRNFGETLDVALFKNGVQTDSLRLIKSEPGVLYRQSNGQFEKI”, the “soluble fraction (log2)” value came out at 0.0586. For the sequence “HMNYSIVNVGFNNKSLFLRSAPGYSASRLLLPFATERAFVRETLSNGWSRVIVRGTEGYLPTEYVAD”, the “soluble fraction (log2)” value was determined as 0.179.

On to “HMNYSKQRETILKVLRSTRSHPSVNWIYENVKKEIPDVGLATVYRNLKQLEAAGEIMRIQGDFPEERWDGF”, for which the “soluble fraction (log2)” value is -0.911. Consider “HMNYTALLNNFSENMKKRRVELSLSQKELASIVGVSVRTIQNYENKKTIPTSAVMESISIALDMGLEKMID”, for which the “soluble fraction (log2)” value was -1.27. In the case of “HMNYTQAQIDRANAVSLEDFLRTQGETLIKSGREYRWKEHDSLTVRGNKWFRHSQSKGGYPIDFVMEFTA”, the “soluble fraction (log2)” value was 0.0368. In the case of “HMNYYYKDNQYWYVGFRYDERLVKEIKRFVGAGYNPENKEWYIPFTLPTVAPLQKWLHDNGFVEGMNYYP”, the “soluble fraction (log2)” value was -1.86.

Take “HMPAAFALLTDREREIAALIAQRLTNREIAEKLYLSEGSVKQYVNQLYAKLGIEGDTRTKRRRLAEQAK”: the “soluble fraction (log2)” value amounted to 0.11.

For the sequence “HMPAAKARTWQEATHAFQRDFLLETLRRARFNAADAADQLGLARPALYTTAKRLGLDLVAERQRWEAEAH”, the “soluble fraction (log2)” value is -0.173. The result for “HMPAAPVFLQKDLLDAGLIGQADSAARREKLGKILGIGYGNGKVMLQRLNSFGIERDAFEQAVQE” reads 0.0718; that for “HMPAASDALAGELAQIARLDIAKLLAGDLSEADWSRITSATVQLSERHPDASDELTALVERIDTAYSARAT”, 0.0455. For “HMPAEGWEASGDTWRYRQKDGSYITNAWVQDTDGKWYYFDESSLMVRNQTTSDGYYVGEDGVWTET”, the “soluble fraction (log2)” value is -0.395. With “HMPAELGVVVRNANLRSGPGTKYAIVGSAPAGTTVRIAGTNKAGDWYHLSSGRWIAAFLVDRN”, the “soluble fraction (log2)” value is -0.941. With “HMPAERLSMRKIYEILRLKYGHGLSNREVALSVSVSRSTVADYLLRAQAAGLSWPLPDGLDETGLEQRLFP”, the “soluble fraction (log2)” value is -2.02. As for “HMPAFGALTLRQRDLVELIAQGLDNSQIAARLGLAEKTVRNHITMIFNKLEMENRSQVIVRARESGFGAVR”, the “soluble fraction (log2)” value is -1.53. In the case of “HMPAKIIKKSFVYNPIHRDTEYLAQFLQGEGQVSASGDKLVYYGTVEDISRIKSVLQSVDTPS”, the “soluble fraction (log2)” value was determined as 0.0363. The result for “HMPALATKDSVLDGRAEVVSYVRDTSVFYLRVRVPQKQGYRSRRIDGVSTLPEAITKALDTYMDLGT” reads -2.57; that for “HMPALELLVESKKPLLIHGEKIAEDINLFDREKYFIDDELIRIVKEFPSLKIILEHVSSKYGAD”, -1.5; that for “HMPAMYKAERMNQILSILADQGDVDVGTLARQFGVSLVTIRKDLTYLESSGQLVRTHGGAIAVA”, -0.767.

“HMPASVEYIRLAAEQMTGQQVTIIEQPGNYAFILRIHLNDIYSLDLAALRARIDELKPAHLTYTVEQYD”: the “soluble fraction (log2)” value was -2.71.

Consider “HMPATTMMVVVDRDLPYGHVLTDRDVRLETRRATSPGASVAFTSIDPVLGQSLTRPLGAGTPVGRADLR”, for which the “soluble fraction (log2)” value was -0.155.

Regarding “HMPAVVEFDVKPRGEVLVDGIWYGRIPELREVELRPGRHHLRVQNAGHPSLDLVVTLEPGERMTVTHTFA”, the “soluble fraction (log2)” value was -0.102.
